For the data set, the target named is EGFP-T/C1 (EGFP-E-III-F-172).

B1: protease type X (Sigma, St. Louis) (protein)
chain: ITGTSTVGVGRGVLGDQKNINTTYSTYYYLQDNTRGNGIFTYDAKYRTTLPGSLWADADNQFFASYDAPAVDAHYYAGVTYDYYKNVHNRLSYDGNNAAIRSSVHYSQGYNNAFWNGSQMVYGDGDGQTFIPLSGGIDVVAHELTHAVTDYTAGLIYQNESGAINEAISDIFGTLVEFYANKNPDWEIGEDVYTPGISGDSLRSMSDPAKYGDPDHYSKRYTGTQDNGGVHINSGIINKAAYLISQGGTHYGVSVVGIGRDKLGKIFYRALTQYLTPTSNFSQLRAAAVQSATDLYGSTSQEVASVKQAFDAVGVK
Consider B1, for which the “optical change / cleavage (absorbance at 397 nm, SDS-PAGE, MALDI-MS)” value was “this sensor was not cleaved by thrombin and protease type X”.

The values above are taken from patent publication US20150010920.
